Measurements taken from patent US20200079842A1 (NETRIS PHARMA, published 2020).
Several values for one entry are separate records, joined by “and”; a condition that tells them apart may be missing. Equal values may be shown once.

How the values were obtained:
[1] = target: T1, His-tagged Netrin-1 (R&D 6419-N1) (human, UniProt O95631 25-604); assay: ELISA, coated His-tagged netrin-1, luminescence
T1 construct: Bought protein; also called adsorbed netrin-1; not shown: His tag
Method: White 96-well microtiter plate (Costar 3912 Corning) was incubated overnight at 4° C. with 100 ng of His-tagged Netrin-1 (R&D 6419-N1) in 100 μL of Phosphate buffer saline (PBS). After three washings with 300 μL of PBS-0.05% TWEEN®-20 (PBS-T), the plate was blocked by addition of 100 μL of PBS-3% BSA and incubated 1 hour at room temperature. After three washings with 300 μL of PBS-T, the plate was incubated with various quantities (10 ng to 1200 ng) of the anti-netrin-1 antibody. After three washings with 300 μL of PBS-T, 100 μL of a relevant secondary antibody conjugated to horse radish peroxidase (e.g. goat anti-human IgG (Fc) Sigma A0170 or goat anti-mouse IgG light chain specific (kappa) Jackson Immunoresearch 115-035-174) diluted 1/10,000 in PBST-3% BSA was added and the plate was incubated 1 hour at room temperature. After three washings with 300 μL of PBS-T, 100 μL of a luminescent substrate of HRP (ECL western blotting substrate, PIERCE) is added. After 5 to 10 minutes, the luminescence was read on a Tecan Infinite F-500 luminometer.

[2] = target: T2, FLAG-tagged netrin-1 (Adipogen) (human, UniProt O95631 25-604, limits assumed); assay: competition ELISA: FLAG-netrin-1 binding to coated UNC5B-Fc
T2 construct: Bought protein; also called FLAG®-tagged Netrin-1 (APOTECH); not shown: FLAG tag
Method: After three washings with 300 μL of PBS-0.05% TWEEN®-20 (PBS-T), the plate was blocked by addition of 100 μL of PBS-2% BSA and incubated 1 hour at room temperature. After three washings with 300 μL of PBS-T, the plate was incubated for 1 hour at room temperature, with 100 μL of PBS-1% BSA containing 50 ng/mL FLAG®-tagged netrin-1 (Adipogen) and various quantities (0.2 ng to 3000 ng) of the 4C11 antibody. After three washings with 300 μL of PBS-T, 100 μL of an anti-FLAG® M2 monoclonal antibody conjugated to horse radish peroxidase (HRP) (Sigma A8592) diluted 1/5,000 in PBST-1% BSA was added and the plate was incubated 1 hour at room temperature. After three washings with 300 μL of PBS-T, 100 μL of a luminescent substrate of HRP (ECL western blotting substrate, PIERCE) is added. After 5 to 10 minutes, the luminescence was read on a Tecan Infinite F-500 luminometer.

B1: 4C11 Fab (Fab, V domains shown)
VH: QAYLQQSGAELVRPGASVKMSCKASGYTFTSYNMHWVKQTPRQGLEWIGAIYPGNGDTSYNQKFKGKATLTVDKSSSTAYMQLSSLTSEDSAVYFCARGGTGFAYWGQGTLVTVSA
VL: SIVMTQTPKFLLVSAGDRVTITCKASQSVSNDVAWYQQKPGQSPKLLIYYASNRYTGVPDRFTGSGYGTDFTFTISTVQAEDLAVYFCQQDYSSPWTFGGGTKLEIK
notes: only the variable domains are tied to it; also called Fab fragment of murine 4C11
- EC50 [1]: 13 nM and 0.65 µg/mL
- IC50 [2]: 0.844 µg/mL and 16.9 nM

B2: 4C11 murine IgG2a (antibody, V domains shown)
VH: QAYLQQSGAELVRPGASVKMSCKASGYTFTSYNMHWVKQTPRQGLEWIGAIYPGNGDTSYNQKFKGKATLTVDKSSSTAYMQLSSLTSEDSAVYFCARGGTGFAYWGQGTLVTVSA
VL: SIVMTQTPKFLLVSAGDRVTITCKASQSVSNDVAWYQQKPGQSPKLLIYYASNRYTGVPDRFTGSGYGTDFTFTISTVQAEDLAVYFCQQDYSSPWTFGGGTKLEIK
- EC50 [1]: 0.063 µg/mL and 0.42 nM
- IC50 [2]: 0.085 µg/mL and 0.567 nM

B3: 4C11 Fab′2 (other)
VH: QAYLQQSGAELVRPGASVKMSCKASGYTFTSYNMHWVKQTPRQGLEWIGAIYPGNGDTSYNQKFKGKATLTVDKSSSTAYMQLSSLTSEDSAVYFCARGGTGFAYWGQGTLVTVSA
VL: SIVMTQTPKFLLVSAGDRVTITCKASQSVSNDVAWYQQKPGQSPKLLIYYASNRYTGVPDRFTGSGYGTDFTFTISTVQAEDLAVYFCQQDYSSPWTFGGGTKLEIK
notes: only the variable domains are tied to it; also called Fab′2 fragment of murine 4C11
- EC50 [1]: 0.035 µg/mL and 0.35 nM
- IC50 [2]: 0.089 µg/mL and 0.89 nM

B4: HUM05 (antibody, human IgG1, V domains shown)
VH: QVQLQESGPGLVKPSQTLSLTCTVSGYTFTSYNMHWVRQAPGQGLEWMGAIYPGNGDTSYNQKFKGRVTISVDTSKNQFSLKLSSVTAADTAVYYCARGGTGFAYWGQG
VL: DIQMTQSPSSLSASVGDRVTITCKASQSVSNDVAWYLQKPGQSPQLLIYYASNRYTGVPSRFSGSGSGTDFTFTISSLEAEDAATYYCQQDYSSPWTFGQG
notes: also called humanized 4C11 variant HUM05
- EC50 [1]: 0.151 µg/mL and 1.01 nM
- IC50 [2]: 0.085 µg/mL and 0.567 nM

B5: HUM07 (antibody, human IgG1, V domains shown)
VH: QVQLQQSGPGLVKPSQTLSLTCAISGYTFTSYNMHWVRQATGQGLEWMGAIYPGNGDTSYNQKFKGRVTITADKSTSTAYMELSSLRSEDTAVYYCARGGTGFAYWGQG
VL: DIQMTQSPSSLSASVGDRVTITCKASQSVSNDVAWYLQKPGQSPQLLIYYASNRYTGVPSRFSGSGSGTDFTFTISSLEAEDAATYYCQQDYSSPWTFGQG
notes: also called humanized 4C11 variant HUM07
- EC50 [1]: 0.125 µg/mL and 0.834 nM
- IC50 [2]: 0.089 µg/mL and 0.594 nM

B6: HUM04 (antibody, human IgG1, V domains shown)
VH: EVQLVQSGAEVKKPGESLRISCKGSGYTFTSYNMHWVRQATGQGLEWMGAIYPGNGDTSYNQKFKGRFTISRDDSKNTAYLQMNSLKTEDTAVYYCARGGTGFAYWGQG
VL: DIQMTQSPSSLSASVGDRVTITCKASQSVSNDVAWYLQKPGQSPQLLIYYASNRYTGVPSRFSGSGSGTDFTFTISSLEAEDAATYYCQQDYSSPWTFGQG
notes: also called humanized 4C11 variant HUM04
- EC50 [1]: 0.198 µg/mL and 1.32 nM
- IC50 [2]: 0.199 µg/mL and 1.33 nM

B7: HUM02 (antibody, human IgG1, V domains shown)
VH: QVQLQQSGPGLVKPSQTLSLTCAISGYTFTSYNMHWIRQPPGKGLEWIGAIYPGNGDTSYNQKFKGRVTITADKSTSTAYMELSSLRSEDTAVYYCARGGTGFAYWGQG
VL: DIQMTQSPSSLSASVGDRVTITCKASQSVSNDVAWFQQRPGQSPRRLIYYASNRYTGVPSRFSGSGSGTDFTFTISSLEAEDAATYYCQQDYSSPWTFGQG
notes: also called humanized 4C11 variant HUM02
- EC50 [1]: 0.26 µg/mL and 1.73 nM
- IC50 [2]: 0.215 µg/mL and 1.43 nM

B8: HUM03 (antibody, human IgG1, V domains shown)
VH: QVQLQQSGPGLVKPSQTLSLTCAISGYTFTSYNMHWVRQATGQGLEWMGAIYPGNGDTSYNQKFKGRLTISKDTSKNQVVLTMTNMDPVDTATYYCARGGTGFAYWGQG
VL: DIQMTQSPSSLSASVGDRVTITCKASQSVSNDVAWYQQKPGQAPRLLIYYASNRYTGIPPRFSGSGYGTDFTLTINNIESEDAAYYFCQQDYSSPWTFGQG
notes: also called Humanized 4C11; humanized 4C11 hum03
- EC50 [1]: 0.166 µg/mL and 1.11 nM
- IC50 [2]: 0.065 µg/mL and 0.434 nM

B9: HUM08 (antibody, human IgG1, V domains shown)
VH: QVQLQQSGPGLVKPSQTLSLTCAISGYTFTSYNMHWVRQATGQGLEWMGAIYPGNGDTSYNQKFKGRLTISKDTSKNQVVLTMTNMDPVDTATYYCARGGTGFAYWGQG
VL: DIQMTQSPSSLSASVGDRVTITCKASQSVSNDVAWYLQKPGQSPQLLIYYASNRYTGVPSRFSGSGSGTDFTFTISSLEAEDAATYYCQQDYSSPWTFGQG
notes: also called humanized 4C11 variant HUM08
- EC50 [1]: 0.134 µg/mL and 0.894 nM
- IC50 [2]: 0.077 µg/mL and 0.514 nM

B10: HUM10 (antibody, human IgG1, V domains shown)
VH: QVQLQQSGPGLVKPSQTLSLTCAISGYTFTSYNMHWIRQPPGKGLEWIGAIYPGNGDTSYNQKFKGRVTITADKSTSTAYMELSSLRSEDTAVYYCARGGTGFAYWGQG
VL: DIQMTQSPSSLSASVGDRVTITCKASQSVSNDVAWYQQKPGQAPRLLIYYASNRYTGIPPRFSGSGYGTDFTLTINNIESEDAAYYFCQQDYSSPWTFGQG
notes: also called humanized 4C11 variant HUM10
- EC50 [1]: 0.211 µg/mL and 1.41 nM
- IC50 [2]: 0.11 µg/mL and 0.734 nM

B11: HUM01 (antibody, human IgG1, V domains shown)
VH: QVQLVQSGAEVKKPGASVKVSCKASGYTFTSYNMHWVRQATGQGLEWMGAIYPGNGDTSYNQKFKGRVTITADKSTSTAYMELSSLRSEDTAVYYCARGGTGFAYWGQG
VL: EIVMTQSPATLSVSPGERATLSCKASQSVSNDVAWYQQKPGKAPKLLIYYASNRYTGIPPRFSGSGYGTDFTLTINNIESEDAAYYFCQQDYSSPWTFGQG
notes: also called humanized 4C11 variant HUM01
- EC50 [1]: 0.134 µg/mL and 0.894 nM
- IC50 [2]: 0.054 µg/mL and 0.36 nM

B12: HUM06 (antibody, human IgG1, V domains shown)
VH: QVQLVQSGAEVKKPGASVKVSCKASGYTFTSYNMHWVRQATGQGLEWMGAIYPGNGDTSYNQKFKGRVTITADKSTSTAYMELSSLRSEDTAVYYCARGGTGFAYWGQG
VL: DIQMTQSPSSLSASVGDRVTITCKASQSVSNDVAWYQQKPGQAPRLLIYYASNRYTGIPPRFSGSGYGTDFTLTINNIESEDAAYYFCQQDYSSPWTFGQG
notes: also called humanized 4C11 variant HUM06
- EC50 [1]: 0.139 µg/mL and 0.927 nM
- IC50 [2]: 0.082 µg/mL and 0.547 nM

B13: HUM09 (antibody, human IgG1, V domains shown)
VH: QVQLVQSGAEVKKPGASVKVSCKASGYTFTSYNMHWVRQATGQGLEWMGAIYPGNGDTSYNQKFKGRVTITADKSTSTAYMELSSLRSEDTAVYYCARGGTGFAYWGQG
VL: DIVMTQTPLSLPVTPGEPASISCKASQSVSNDVAWYQQKPGQAPRLLIYYASNRYTGIPPRFSGSGYGTDFTLTINNIESEDAAYYFCQQDYSSPWTFGQG
notes: also called humanized 4C11 variant HUM09
- EC50 [1]: 0.153 µg/mL and 1.02 nM
- IC50 [2]: 0.071 µg/mL and 0.474 nM
